The results in this text go back to article PMC6497955, “Development and structural characterization of an engineered multi-copper oxidase reporter of protein–protein interactions” (The Journal of Biological Chemistry, 2019).

T1: CueO (M358I) (E. coli, UniProt P36649 29-516, M358I)
T1 construct: signal peptide in the construct (primer 1 begins at the precursor's ATG); E. coli multi-copper oxidase CueO, gene amplified from JM109 genomic DNA with primers 1 and 2; The M358I mutation arose during cloning and is present in all variants; The signal peptide may be cut in E. coli (surmise; the solved variants are modelled from residue 29 or 30); source: E. coli BL21(DE3), purified (HisTrap)
T1 sequence (looked up): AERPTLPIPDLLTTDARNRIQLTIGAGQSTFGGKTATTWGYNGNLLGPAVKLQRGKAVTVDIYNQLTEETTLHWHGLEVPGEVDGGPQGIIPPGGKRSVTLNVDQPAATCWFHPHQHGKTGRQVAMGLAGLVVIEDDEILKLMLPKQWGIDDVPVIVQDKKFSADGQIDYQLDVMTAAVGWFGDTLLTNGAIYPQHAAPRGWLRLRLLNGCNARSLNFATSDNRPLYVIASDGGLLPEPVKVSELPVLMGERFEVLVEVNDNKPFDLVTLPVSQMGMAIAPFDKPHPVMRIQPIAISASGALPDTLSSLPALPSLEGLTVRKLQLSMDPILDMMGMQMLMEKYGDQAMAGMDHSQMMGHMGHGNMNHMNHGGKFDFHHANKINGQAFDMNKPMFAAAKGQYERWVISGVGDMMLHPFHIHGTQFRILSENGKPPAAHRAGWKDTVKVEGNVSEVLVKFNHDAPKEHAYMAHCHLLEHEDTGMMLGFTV

T2: CueO-12.1 (E. coli, UniProt P36649 29-516, M358I | 12.1 peptide replaced residues 384–394 (translated from primers 9 and …))
T2 construct: signal peptide in the construct; source: E. coli BL21(DE3), purified (HisTrap)
T2 sequence (looked up): T1 sequence (looked up) with M357P, G358R, H359F, G361D, H362Y, G363W, N364E, M365G, N366L, H367N

T3: CueO-PMI (E. coli, UniProt P36649 29-516, M358I | PMI peptide insert (translated from primers 13 and 14, Table 3: 385-395 …))
T3 construct: signal peptide in the construct; source: E. coli BL21(DE3), purified (HisTrap)
T3 sequence (looked up): T1 sequence (looked up) with M357T, G358S, H359F, M360A, G361E, H362Y, G363W, M365L, N366L, H367S

B1: CueO-PM2 (designed binder)
chain: AERPTLPIPDLLTTDARNRIQLTIGAGQSTFGGKTATTWGYNGNLLGPAVKLQRGKAVTVDIYNQLTEETTLHWHGLEVPGEVDGGPQGIIPPGGKRSVTLNVDQPAATCWFHPHQHGKTGRQVAMGLAGLVVIEDDEILKLMLPKQWGIDDVPVIVQDKKFSADGQIDYQLDVMTAAVGWFGDTLLTNGAIYPQHAAPRGWLRLRLLNGCNARSLNFATSDNRPLYVIASDGGLLPEPVKVSELPVLMGERFEVLVEVNDNKPFDLVTLPVSQMGMAIAPFDKPHPVMRIQPIAISASGALPDTLSSLPALPSLEGLTVRKLQLSMDPILDMMGMQMLMEKYGDQAMAGMDHSQMTSFAEYWALLSMNHGGKFDFHHANKINGQAFDMNKPMFAAAKGQYERWVISGVGDMMLHPFHIHGTQFRILSENGKPPAAHRAGWKDTVKVEGNVSEVLVKFNHDAPKEHAYMAHCHLLEHEDTGMMLGFTV
B2: MDM2(6–125) (domain or fragment, UniProt Q00987 6-125, looked up)
chain: MSVPTDGAVTTSQIPASEQETLVRPKPLLLKLLKSVGAQKDTYTMKEVLFYLGQYIMTKRLYDEKQQHIVYCSNDLLGDLFGVPSFSVKEHRKIYTMIYRNLVVVNQQESSDSGTSVSEN

For the assay “MDM2(6–125)”, the target named is B2. Description: cell-based or functional assay.
Another assay concerns the target T1, CueO (M358I). Description: fluorescence polarisation; competitive fluorescence anisotropy; CueO proteins titrated against 150 nM MDM2(6–125) and 50 nM FITC-labeled 12.1 peptide; PBS, 3% DMSO, 0.1% Tween 20; apparent Kd. The note with it: both partners purified. For orientation: Fluorescence polarisation rises when a labelled molecule tumbles more slowly, as on binding a larger partner.

Another assay addresses T2, CueO-12.1. The description is as above. The settings on record: both partners purified.
Another assay has as its target T3, CueO-PMI. The assay is described as above. The note with it: both partners purified.
The assay “CueO-PM2” has as its target B1. The description is as above. The note with it: both partners purified.

Positions count from the first letter of the chain named.

Turning to B1, the “kcat of syringaldazine oxidation by CueO-PM2 preincubated with 10 μM MDM2, against CueO-PM2 alone” value in the assay with MDM2(6–125) is about 1.6 fold.
Regarding B2, the Kd is 44300 nM with CueO (M358I), 722 nM with CueO-12.1, 28 nM with CueO-PMI and 25 nM with CueO-PM2.
